B1: mouse ribonuclease inhibitor (natural protein, mouse (M. musculus))
chain: MSLDIQCEQLSDARWTELLPLIQQYEVVRLDDCGLTEVRCKDISSAVQANPALTELSLRTNELGDGGVGLVLQGLQNPTCKIQKLSLQNCGLTEAGCGILPGMLRSLSTLRELHLNDNPMGDAGLKLLCEGLQDPQCRLEKLQLEYCNLTATSCEPLASVLRVKADFKELVLSNNDLHEPGVRILCQGLKDSACQLESLKLENCGITAANCKDLCDVVASKASLQELDLSSNKLGNAGIAALCPGLLLPSCKLRTLWLWECDITAEGCKDLCRVLRAKQSLKELSLASNELKDEGARLLCESLLEPGCQLESLWIKTCSLTAASCPYFCSVLTKSRSLLELQMSSNPLGDEGVQELCKALSQPDTVLRELWLGDCDVTNSGCSSLANVLLANRSLRELDLSNNCMGGPGVLQLLESLKQPSCTLQQLVLYDIYWTNEVEEQLRALEEERPSLRIIS
B5: human ribonuclease inhibitor (natural protein, human (H. sapiens))
chain: MSLDIQSLDIQCEELSDARWAELLPLLQQCQVVRLDDCGLTEARCKDISSALRVNPALAELNLRSNELGDVGVHCVLQGLQTPSCKIQKLSLQNCCLTGAGCGVLSSTLRTLPTLQELHLSDNLLGDAGLQLLCEGLLDPQCRLEKLQLEYCSLSAASCEPLASVLRAKPDFKELTVSNNDINEAGVRVLCQGLKDSPCQLEALKLESCGVTSDNCRDLCGIVASKASLRELALGSNKLGDVGMAELCPGLLHPSSRLRTLWIWECGITAKGCGDLCRVLRAKESLKELSLAGNELGDEGARLLCETLLEPGCQLESLWVKSCSFTAACCSHFSSVLAQNRFLLELQISNNRLEDAGVRELCQGLGQPGSVLRVLWLADCDVSDSSCSSLAATLLANHSLRELDLSNNCLGDAGILQLVESVRQPGCLLEQLVLYDIYWSEEMEDRLQALEKDKPSLRVIS

Assays:
[1] = molecular target: anole RNase 1 (anole lizard (Anolis carolinensis))
[2] = molecular target: chicken RNase A-1 (chicken (G. gallus))
mouse RNase 1 = molecular target: T1, mouse RNase 1 (mouse (M. musculus), UniProt P00683 26-149)
T1 sequence (looked up): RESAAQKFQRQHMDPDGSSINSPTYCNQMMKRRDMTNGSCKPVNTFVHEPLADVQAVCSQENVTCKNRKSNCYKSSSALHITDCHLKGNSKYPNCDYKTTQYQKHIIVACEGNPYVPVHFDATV

bovine RNase A = molecular target: T2, bovine RNase A (bovine, UniProt P61823 27-150)
T2 sequence (looked up): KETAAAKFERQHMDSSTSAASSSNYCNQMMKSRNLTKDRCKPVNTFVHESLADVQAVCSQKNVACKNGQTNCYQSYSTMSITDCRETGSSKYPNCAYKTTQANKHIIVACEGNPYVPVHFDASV

[3] = molecular target: B1; assay: fluorescence dissociation-rate assay
[4] = molecular target: B5; assay: fluorescence dissociation-rate assay
human RNase 1 = molecular target: T3, human RNase 1 (human, UniProt P07998 29-156)
T3 sequence: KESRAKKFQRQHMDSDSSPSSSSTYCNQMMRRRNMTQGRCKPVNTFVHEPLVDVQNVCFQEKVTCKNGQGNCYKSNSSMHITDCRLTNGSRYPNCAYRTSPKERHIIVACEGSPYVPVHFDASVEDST

## anole ribonuclease inhibitor (natural protein)
[1]
  stoichiometry N: 1

## chicken ribonuclease inhibitor (natural protein)
[2]
  stoichiometry N: 1

## B1
Mouse RNase 1
  stoichiometry N: 1

B2: bovine ribonuclease inhibitor (natural protein, bovine (B. taurus))
chain: MKLDIQCEQLSDARWTELLPLIQQYEVVRLDDCGLTEVRCKDIGSALQANASLTELSLRTNELGDGGVLLVLQGLQSPTCKIQKLSLQNCCLTEAGCGVLPGVLRSLPTLRELHLSDNPLGDAGLRLLCEGLLDPRCRLEKLQLEYCSLTAASCEPLAAVLRATRDLKELVVSNNDIGEAGVQALCRGLAESACQLETLKLENCGLTAANCKDLCGIVASQASLKDLDLGSNRLGDAGLAELCPGLLSPSSQLRTLWLWECDLTVSGCRELCRVLQAKEALKELSLAGNSLGDEGAQLLCESLLQPGCQLESLWVKSCGFTAACCQHFSSMLTQNKHLLELQLSSNPLGDAGVHVLCQALGQPGTVLRVLWVGDCELTNSSCGGLASLLLASPSLRELDLSNNGLGDPGVLQLLGSLEQPACSLEQLVLYDIYWTEAVDERLRAVEESKPGLRIIS
Bovine RNase A
  stoichiometry N: 1

B3: P19C human RNase 1, labeled with diethylfluorescein (DEFIA) (enzyme, UniProt P07998 29-156, looked up)
chain: KESRAKKFQRQHMDSDSSCSSSSTYCNQMMRRRNMTQGRCKPVNTFVHEPLVDVQNVCFQEKVTCKNGQGNCYKSNSSMHITDCRLTNGSRYPNCAYRTSPKERHIIVACEGSPYVPVHFDASVEDST
modifications: diethylfluorescein (DEFIA) on the introduced cysteine 19
[3]
  binding result: binds

B4: S19C mouse RNase 1, labeled with diethylfluorescein (DEFIA) (enzyme, mouse (M. musculus), UniProt P00683 26-149, looked up)
chain: RESAAQKFQRQHMDPDGSCINSPTYCNQMMKRRDMTNGSCKPVNTFVHEPLADVQAVCSQENVTCKNRKSNCYKSSSALHITDCHLKGNSKYPNCDYKTTQYQKHIIVACEGNPYVPVHFDATV
modifications: diethylfluorescein (DEFIA) on the introduced cysteine 19
[4]
  binding result: binds

## B5
Human RNase 1
  stoichiometry N: 1

B6: A19C bovine RNase 1, labeled with diethylfluorescein (DEFIA) (enzyme, UniProt P61823 27-150, looked up)
chain: KETAAAKFERQHMDSSTSCASSSNYCNQMMKSRNLTKDRCKPVNTFVHESLADVQAVCSQKNVACKNGQTNCYQSYSTMSITDCRETGSSKYPNCAYKTTQANKHIIVACEGNPYVPVHFDASV
modifications: diethylfluorescein (DEFIA) on the introduced cysteine 19
[4]
  binding result: binds
[3]
  binding result: binds

— publication PMC4219644 (Journal of molecular biology, 2014)
